The assay deals with T1, hPCSK9 (Homo sapiens, UniProt Q8NBP7).
T1 construct: purchased Sino Biologicals, China
Nature of the assay: C6 hPCSK9 challenge model, LDL-R expression in mouse liver (Western blot). It is filed as in vivo. The note with it: healthy control 100%, hPCSK9 alone 0%. In general terms: A western blot detects proteins with antibodies after separation by electrophoresis.

T1 sequence (Q8NBP7 153-692): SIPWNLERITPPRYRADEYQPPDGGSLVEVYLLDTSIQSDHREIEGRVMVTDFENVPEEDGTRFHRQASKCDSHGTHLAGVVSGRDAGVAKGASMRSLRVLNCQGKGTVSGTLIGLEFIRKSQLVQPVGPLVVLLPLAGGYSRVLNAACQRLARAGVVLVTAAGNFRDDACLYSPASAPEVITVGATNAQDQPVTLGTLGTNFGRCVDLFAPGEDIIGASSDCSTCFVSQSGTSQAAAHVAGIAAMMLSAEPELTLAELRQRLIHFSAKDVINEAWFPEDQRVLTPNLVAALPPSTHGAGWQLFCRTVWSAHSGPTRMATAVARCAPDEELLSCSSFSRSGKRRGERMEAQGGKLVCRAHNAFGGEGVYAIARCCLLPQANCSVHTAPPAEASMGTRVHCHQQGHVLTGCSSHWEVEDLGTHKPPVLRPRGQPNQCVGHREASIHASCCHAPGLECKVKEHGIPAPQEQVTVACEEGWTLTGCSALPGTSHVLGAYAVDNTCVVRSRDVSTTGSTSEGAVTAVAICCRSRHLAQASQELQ
Protocol: Sixty minutes after the injection of hPCSK9, the animals are anaesthetised in isoflurane and euthanised by cervical dislocation. The liver is then quickly excised and snapfrozen in liquid nitrogen. The livers are kept at −80° C. until analysis.
The proteins are transferred to nitrocellulose membranes (iBlot 2 NC Regular stacks, novex #IB23001) according to manufacturer's instructions (Life Technology). Equal protein transfer is confirmed by Ponceau S (Sigma, P7170) staining of the membranes and the membranes are further blocked in blocking buffer (TBS-T, 2% Tween). […] Quantitative analysis of chemiluminescent signals from Western blots is done with MultiGauge software (Fujifilm).
The LDL-R expression levels were measured by Western Blot, and the expression levels compared.

As to “Alirocumab: anti-PCSK9 antibody, control molecule in the hPCSK9 challenge model”, the “Percentage of baseline (%) Mean ± SEM” value (compound 30 nmol/kg) turned out to be 100 ± 13%. Also, the “Percentage of baseline (%)” value (inhibitor 22 nmol/kg) was found to be 157%.

(Values after US11130794B2, “Bifunctional compounds” (Novo Nordisk A/S, priority 2017, dated 2021).)
